Reference: the supplement of paper PMC10724198
± gives the standard deviation of the averaged measurements.

System: Saccharomyces cerevisiae
Assay: protein stability index of tFT-peptide fusion (C-terminal peptide) (PSI (0-1 scale)); higher = more stable (slower turnover)
Conditions: genetic background: wild type; temperature: 30 C
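Also: PSI is a weighted mean of sequencing reads over stability bins, variants kept only with over 10 reads, mCherry proximal and sfGFP distal, peptide attached via GGGS linker.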

| Sequence | protein stability index |
| --- | --- |
| LFFLFSPFSRLP | 0.786 ± 0.089 |
| QGKRRREDGIGG | 0.711 ± 0.072 |
| RSFAGTTRIRLG | 0.739 ± 0.043 |
| KTPAAVPWTRER | 0.693 ± 0.013 |
| SSRLALVLLPPG | 0.649 ± 0.042 |
| HIHQDPGVIRWG | 0.7216 ± 0.0015 |
| GPGFGEFVWSLW | 0.692 ± 0.044 |
| PFLSLPLSPPPP | 0.71 ± 0.092 |
| LAEGFSLIRSHR | 0.685 ± 0.019 |
| KFKREKKKINKR | 0.6938 ± 0.0023 |
| GAPAWMLLYSAS | 0.723 ± 0.029 |
| SFPLPSPSPLLP | 0.712 ± 0.05 |
| QTQNEENKKQKY | 0.612 ± 0.13 |
| FVLATGVLLQQG | 0.623 ± 0.024 |
| HRSIDEGCSCCD | 0.627 ± 0.093 |
| GNVNCNLRRYYI | 0.766 ± 0.086 |
| RGDIQASKRIHL | 0.752 ± 0.046 |
| AGVGVSSSLLPL | 0.664 ± 0.025 |
| IRRPSVTAIRPS | 0.667 ± 0.08 |
| LASPPFPRPPPP | 0.57 ± 0.12 |
| SRLSPSPLPPFL | 0.667 ± 0.023 |
| ARIQECLTKASK | 0.607 ± 0.095 |
| CVGPSVERGFWG | 0.689 ± 0.031 |
| EEVKRKSGGKSK | 0.662 ± 0.027 |
| GVLCGVGLGFGV | 0.702 ± 0.044 |
| INKWNKRDGLFQ | 0.66 ± 0.03 |

| Sequence | protein stability index |
| --- | --- |
| PPGVTPLSLCAC | 0.534 ± 0.0088 |
| RQLGELASARWL | 0.709 ± 0.025 |
| VVLRSTFFGSLL | 0.699 ± 0.0089 |
| LRECRSWGGAAG | 0.653 ± 0.029 |
| VSGVREGCSEME | 0.773 ± 0.11 |
| YSTFIPYSPCTA | 0.644 ± 0.013 |
| RARYGPSYTLPL | 0.642 ± 0.027 |
| VQRPALPPRHPP | 0.612 ± 0.005 |
| VEHVRIGGGGKS | 0.7 ± 0.013 |
| VGGGEVRAWGLR | 0.661 ± 0.008 |
| IRSLPYVGVFIE | 0.587 ± 0.036 |
| PSPSPPPLRSPL | 0.623 ± 0.016 |
| LPPSPLALVSSS | 0.637 ± 0.021 |
| AQDECVMVWYVG | 0.651 ± 0.013 |
| FHRSNFLPFFHL | 0.593 ± 0.092 |
| IERKNYPQNRRQ | 0.62 ± 0.046 |
| MGGGGGLGGGDG | 0.613 ± 0.072 |
| RTLNPHLYRLRH | 0.682 ± 0.024 |
| EVAFGLLPPHDS | 0.701 ± 0.019 |
| SPSSLPPTLPTL | 0.711 ± 0.021 |
| VVGVAVSRTFAR | 0.618 ± 0.039 |
| KGDWGGRGCGRH | 0.693 ± 0.021 |
| AGLRRLRDFGSN | 0.726 ± 0.037 |
| REGGEIGDQEGT | 0.674 ± 0.069 |
| DKVKILVGVAGW | 0.607 ± 0.036 |
| GVVGVGRCWGLV | 0.628 ± 0.08 |

| Sequence | protein stability index |
| --- | --- |
| HPPSPPPPPSRL | 0.713 ± 0.071 |
| GGFDDIYVPIFV | 0.694 ± 0.012 |
| ASPPPPRISAWL | 0.7159 ± 0.0036 |
| TIPSHPLLPTLC | 0.648 ± 0.049 |
| GTSPGREFYWHK | 0.702 ± 0.033 |
| CWLGSIAGLRGR | 0.7399 ± 0.0064 |
| CECAEGRGKDRS | 0.591 ± 0.0069 |
| PPPMSVAVFPFG | 0.678 ± 0.03 |
| VPLPPPFPASLT | 0.61 ± 0.027 |
| RIFSPVFLSMSV | 0.649 ± 0.018 |
| GAAPRWSGDRRW | 0.71 ± 0.06 |
| SVSRGAPSGSLG | 0.688 ± 0.067 |
| ERGGWGVGSEVG | 0.719 ± 0.03 |
| PPPLPPPPASPP | 0.685 ± 0.01 |
| VSWVMSEMRKGE | 0.697 ± 0.031 |
| SSRCLPPFPLCP | 0.736 ± 0.11 |
| PPPLLSAPPHCE | 0.684 ± 0.052 |
| GNGEGRKPPRPP | 0.619 ± 0.014 |
| APPPSPLPLPSL | 0.689 ± 0.08 |
| VTFRCHHSRQVM | 0.725 ± 0.14 |
| PCPPAPPRFLLR | 0.732 ± 0.016 |
| PPPPPLPRALST | 0.72 ± 0.044 |
| LPPSPHPPLPHL | 0.886 ± 0.011 |
| QIKGNNLNIDKG | 0.6721 ± 0.0031 |
| RRLLRWFYLDGG | 0.661 ± 0.022 |
| VTCALGIGGVGV | 0.716 ± 0.05 |

| Sequence | protein stability index |
| --- | --- |
| GQPLAEKFGEFV | 0.623 ± 0.088 |
| LQAALVFPRSSL | 0.7225 ± 0.00052 |
| GVSRGTGIGEGE | 0.6774 ± 0.0039 |
| GVWCLDVYGRRC | 0.6837 ± 0.0022 |
| PPPGLPPPLPPS | 0.767 ± 0.015 |
| HFPPPPRPSAPP | 0.681 ± 0.036 |
| PPVPRSPPPRRS | 0.719 ± 0.12 |
| VEAGDYAWDEAA | 0.657 ± 0.056 |
| KIDKNILTNKEN | 0.673 ± 0.056 |
| PLTEELCFSAWG | 0.734 ± 0.031 |
| GESWGGVGDVRR | 0.762 ± 0.028 |
| PHYPQSHPADPV | 0.668 ± 0.016 |
| FGSVGSIRTPDG | 0.707 ± 0.0086 |
| PPSPYNPPSTAN | 0.722 ± 0.0091 |
| LWGFVEAIGSVL | 0.705 ± 0.18 |
| KRTRRADVGKED | 0.65 ± 0.064 |
| SWRRRNGNCERR | 0.646 ± 0.063 |
| QKDLDGSLANST | 0.692 ± 0.025 |
| GGVKVRGGMGPE | 0.684 ± 0.019 |
| SPPPPPPSPPLH | 0.727 ± 0.044 |
| TYLSSPAPLLPL | 0.694 ± 0.033 |
| SDQPTWTAQTSN | 0.783 ± 0.025 |
| FSIFFFSFFSCF | 0.563 ± 0.039 |
